T1: Human CTLA-4 / CD152 Protein, Fc Tag (ACRO) (human, UniProt P16410 36-161, limits assumed)
T1 construct: Bought reagent (ACRO); no catalogue number, no construct limits; not shown: Fc tag
T1 sequence (looked up): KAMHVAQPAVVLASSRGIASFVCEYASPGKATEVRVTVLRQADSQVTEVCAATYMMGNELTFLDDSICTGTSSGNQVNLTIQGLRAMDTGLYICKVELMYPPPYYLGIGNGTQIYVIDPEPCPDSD

T2: Human TIGIT Protein, Fc Tag (ACRO) (human, UniProt Q495A1 22-141)
T2 construct: Bought reagent (ACRO); no catalogue number, no construct limits; also called Human TIGIT Protein, Fc TagTIGIT; not shown: Fc tag
T2 sequence (looked up): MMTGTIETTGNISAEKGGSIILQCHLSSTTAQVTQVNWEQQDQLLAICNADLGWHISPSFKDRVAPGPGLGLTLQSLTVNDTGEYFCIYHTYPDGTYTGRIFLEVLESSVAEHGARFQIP

T3: Human LAG-3 / CD223 Protein, His Tag (ACRO) (human, UniProt P18627 23-450)
T3 construct: Bought reagent (ACRO); no catalogue number, no construct limits; not shown: His tag
T3 sequence (looked up): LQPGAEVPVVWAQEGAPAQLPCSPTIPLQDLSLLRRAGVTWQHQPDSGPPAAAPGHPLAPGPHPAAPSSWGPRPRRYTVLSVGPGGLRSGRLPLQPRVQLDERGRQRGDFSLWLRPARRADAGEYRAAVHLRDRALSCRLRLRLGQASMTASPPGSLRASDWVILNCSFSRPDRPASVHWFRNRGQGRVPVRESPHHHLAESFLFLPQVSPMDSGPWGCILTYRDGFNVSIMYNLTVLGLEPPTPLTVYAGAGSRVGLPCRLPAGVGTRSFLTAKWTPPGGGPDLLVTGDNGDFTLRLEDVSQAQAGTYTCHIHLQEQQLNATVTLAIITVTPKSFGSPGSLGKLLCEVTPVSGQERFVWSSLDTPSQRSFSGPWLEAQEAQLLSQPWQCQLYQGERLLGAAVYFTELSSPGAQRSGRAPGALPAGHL

B1: immunosuppressive molecule of plasmid CAR19-PT3 (anti-PD1 scFv, linker, anti-TIM3 scFv, IgG4 hinge, CD28 transmembrane region, CD28 co-stimulatory domain), on … (other)
chain: QVQLVQSGVEVKKPGASVKVSCKASGYTFTNYYMYWVRQAPGQGLEWMGGINPSNGGTNFNEKFKNRVTLTTDSSTTTAYMELKSLQFDDTAVYYCARRDYRFDMGFDYWGQGTTVTVSSGGGGSGGGGSGGGGSEIVLTQSPATLSLSPGERATLSCRASKGVSTSGYSYLHWYQQKPGQAPRLLIYLASYLESGVPARFSGSGSGTDFTLTISSLEPEDFAVYYCQHSRDLPLTFGGGTKVEIKGGGGSGGGGSGGGGSQVQLVQSGAEVKKPGSSVKVSCKASGYTFTSYNMHWVRQAPGQGLEWMGDIYPGNGDTSYNQKFKGRVTITADKSTSTVYMELSSLRSEDTAVYYCARVGGAFPMDYWGQGTTVTVSSGGGGSGGGGSGGGGSAIQLTQSPSSLSASVGDRVTITCRASESVEYYGTSLMQWYQQKPGKAPKLLIYAASNVESGVPSRFSGSGSGTDFTLTISSLQPEDFATYFCQQSRKDPSTFGGGTKVEIKESKYGPPCPPCPFWVLVVVGGVLACYSLLVTVAFIIFWVRSKRSRLLHSDYMNMTPRRPGPTRKHYQPYAPPRDFAAYRS
notes: Membrane-anchored on transduced T cells that also express the anti-CD19 CAR
B2: immunosuppressive molecule of plasmid CAR19-C4T3 (anti-CTLA4 scFv, linker, anti-TIM3 scFv, IgG4 hinge, CD28 transmembrane region, CD28 co-stimulatory domain), … (other)
chain: QVQLVESGGGVVQPGRSLRLSCAASGFTFSSYGMHWVRQAPGKGLEWVAVIWYDGSNKYYADSVKGRFTISRDNSKNTLYLQMNSLRAEDTAVFYCARAPNYIGAFDVWGQGTMVTVSSGGGGSGGGGSGGGGSDIQMTQSPSSLSASVGDRVTITCRASQGISSWLAWYQQKPEKAPKSLIYAASSLQSGVPSRFSGSGSGTDFTLTISSLQPEDFATYYCQQYNSYPPTFGQGTKVEIKGGGGSGGGGSGGGGSQVQLVQSGAEVKKPGSSVKVSCKASGYTFTSYNMHWVRQAPGQGLEWMGDIYPGNGDTSYNQKFKGRVTITADKSTSTVYMELSSLRSEDTAVYYCARVGGAFPMDYWGQGTTVTVSSGGGGSGGGGSGGGGSAIQLTQSPSSLSASVGDRVTITCRASESVEYYGTSLMQWYQQKPGKAPKLLIYAASNVESGVPSRFSGSGSGTDFTLTISSLQPEDFATYFCQQSRKDPSTFGGGTKVEIKESKYGPPCPPCPFWVLVVVGGVLACYSLLVTVAFIIFWVRSKRSRLLHSDYMNMTPRRPGPTRKHYQPYAPPRDFAAYRS
notes: as for B1
B3: immunosuppressive molecule of plasmid CAR19-C4 (anti-CTLA4 scFv, IgG4 hinge, CD28 transmembrane region, CD28 co-stimulatory domain), on CAR19-C4 T cells (other)
chain: QVQLVESGGGVVQPGRSLRLSCAASGFTFSSYGMHWVRQAPGKGLEWVAVIWYDGSNKYYADSVKGRFTISRDNSKNTLYLQMNSLRAEDTAVFYCARAPNYIGAFDVWGQGTMVTVSSGGGGSGGGGSGGGGSDIQMTQSPSSLSASVGDRVTITCRASQGISSWLAWYQQKPEKAPKSLIYAASSLQSGVPSRFSGSGSGTDFTLTISSLQPEDFATYYCQQYNSYPPTFGQGTKVEIKESKYGPPCPPCPFWVLVVVGGVLACYSLLVTVAFIIFWVRSKRSRLLHSDYMNMTPRRPGPTRKHYQPYAPPRDFAAYRS
notes: as for B1
B4: immunosuppressive molecule of plasmid CAR19-ATT (anti-NKG2A scFv, linker, anti-TIGIT scFv, IgG4 hinge, CD28 transmembrane region, CD28 co-stimulatory domain), … (other)
chain: EIVLTQSPATLSLSPGERATMTCSASSSVSSYIYWYQQKPGQAPRLLIYLTSNLASGIPARFSGSGSGTDFTLTISSLEPEDFATYYCQQWSGNPYTFGQGTKVEIKGSTSGSGKPGSGEGSTKGEVQLVESGGGLVKPGGSLRLSCAASGFTFSSYAMSWVRQAPGKGLEWVAEISSGGSYTYYPDSVKGRFTISRDNAKNSLYLQMNSLRAEDTAVYYCTRHGDYPRFFDVWGQGTLVTVSSGGGGSGGGGSGGGGSEVQLQQSGPGLVKPSQTLSLTCAISGDSVSSNSAAWNWIRQSPSRGLEWLGKTYYRFKWYSDYAVSVKGRITINPDTSKNQFSLQLNSVTPEDTAVFYCTRESTTYDLLAGPFDYWGQGTLVTVSSGGGGSGGGGSGGGGSDIVMTQSPDSLAVSLGERATINCKSSQTVLYSSNNKKYLAWYQQKPGQPPNLLIYWASTRESGVPDRFSGSGSGTDFTLTISSLQAEDVAVYYCQQYYSTPFTFGPGTKVEIKRESKYGPPCPPCPFWVLVVVGGVLACYSLLVTVAFIIFWVRSKRSRLLHSDYMNMTPRRPGPTRKHYQPYAPPRDFAAYRS
notes: as for B1
B5: immunosuppressive molecule of plasmid CAR19-AL3 (anti-NKG2A scFv, linker, anti-LAG3 scFv, IgG4 hinge, CD28 transmembrane region, CD28 co-stimulatory domain), … (other)
chain: EIVLTQSPATLSLSPGERATMTCSASSSVSSYIYWYQQKPGQAPRLLIYLTSNLASGIPARFSGSGSGTDFTLTISSLEPEDFATYYCQQWSGNPYTFGQGTKVEIKGSTSGSGKPGSGEGSTKGEVQLVESGGGLVKPGGSLRLSCAASGFTFSSYAMSWVRQAPGKGLEWVAEISSGGSYTYYPDSVKGRFTISRDNAKNSLYLQMNSLRAEDTAVYYCTRHGDYPRFFDVWGQGTLVTVSSGGGGSGGGGSGGGGSQVQLQQWGAGLLKPSETLSLTCAVYGGSFSDYYWNWIRQPPGKGLEWIGEINHRGSTNSNPSLKSRVTLSLDTSKNQFSLKLRSVTAADTAVYYCAFGYSDYEYNWFDPWGQGTLVTVSSGGGGSGGGGSGGGGSEIVLTQSPATLSLSPGERATLSCRASQSISSYLAWYQQKPGQAPRLLIYDASNRATGIPARFSGSGSGTDFTLTISSLEPEDFAVYYCQQRSNWPLTFGQGTNLEIKRESKYGPPCPPCPFWVLVVVGGVLACYSLLVTVAFIIFWVRSKRSRLLHSDYMNMTPRRPGPTRKHYQPYAPPRDFAAYRS
notes: Membrane-anchored on lentivirally transduced human T cells that also express the anti-CD19 CAR (separated by T2A)
B6: immunosuppressive molecule of plasmid CAR19-PL3 (anti-PD1 scFv, linker, anti-LAG3 scFv, IgG4 hinge, CD28 transmembrane region, CD28 co-stimulatory domain), on … (other)
chain: QVQLVQSGVEVKKPGASVKVSCKASGYTFTNYYMYWVRQAPGQGLEWMGGINPSNGGTNFNEKFKNRVTLTTDSSTTTAYMELKSLQFDDTAVYYCARRDYRFDMGFDYWGQGTTVTVSSGGGGSGGGGSGGGGSEIVLTQSPATLSLSPGERATLSCRASKGVSTSGYSYLHWYQQKPGQAPRLLIYLASYLESGVPARFSGSGSGTDFTLTISSLEPEDFAVYYCQHSRDLPLTFGGGTKVEIKGGGGSGGGGSGGGGSQVQLQQWGAGLLKPSETLSLTCAVYGGSFSDYYWNWIRQPPGKGLEWIGEINHRGSTNSNPSLKSRVTLSLDTSKNQFSLKLRSVTAADTAVYYCAFGYSDYEYNWFDPWGQGTLVTVSSGGGGSGGGGSGGGGSEIVLTQSPATLSLSPGERATLSCRASQSISSYLAWYQQKPGQAPRLLIYDASNRATGIPARFSGSGSGTDFTLTISSLEPEDFAVYYCQQRSNWPLTFGQGTNLEIKRESKYGPPCPPCPFWVLVVVGGVLACYSLLVTVAFIIFWVRSKRSRLLHSDYMNMTPRRPGPTRKHYQPYAPPRDFAAYRS
notes: as for B1
B7: immunosuppressive molecule of plasmid CAR19-PC4 (anti-PD1 scFv, linker, anti-CTLA4 scFv, IgG4 hinge, CD28 transmembrane region, CD28 co-stimulatory domain), on … (other)
chain: QVQLVQSGVEVKKPGASVKVSCKASGYTFTNYYMYWVRQAPGQGLEWMGGINPSNGGTNFNEKFKNRVTLTTDSSTTTAYMELKSLQFDDTAVYYCARRDYRFDMGFDYWGQGTTVTVSSGGGGSGGGGSGGGGSEIVLTQSPATLSLSPGERATLSCRASKGVSTSGYSYLHWYQQKPGQAPRLLIYLASYLESGVPARFSGSGSGTDFTLTISSLEPEDFAVYYCQHSRDLPLTFGGGTKVEIKGGGGSGGGGSGGGGSQVQLVESGGGVVQPGRSLRLSCAASGFTFSSYGMHWVRQAPGKGLEWVAVIWYDGSNKYYADSVKGRFTISRDNSKNTLYLQMNSLRAEDTAVFYCARAPNYIGAFDVWGQGTMVTVSSGGGGSGGGGSGGGGSDIQMTQSPSSLSASVGDRVTITCRASQGISSWLAWYQQKPEKAPKSLIYAASSLQSGVPSRFSGSGSGTDFTLTISSLQPEDFATYYCQQYNSYPPTFGQGTKVEIKESKYGPPCPPCPFWVLVVVGGVLACYSLLVTVAFIIFWVRSKRSRLLHSDYMNMTPRRPGPTRKHYQPYAPPRDFAAYRS
notes: as for B1
B8: immunosuppressive molecule of plasmid CAR19-C4L3 (anti-CTLA4 scFv, linker, anti-LAG3 scFv, IgG4 hinge, CD28 transmembrane region, CD28 co-stimulatory domain), … (other)
chain: QVQLVESGGGVVQPGRSLRLSCAASGFTFSSYGMHWVRQAPGKGLEWVAVIWYDGSNKYYADSVKGRFTISRDNSKNTLYLQMNSLRAEDTAVFYCARAPNYIGAFDVWGQGTMVTVSSGGGGSGGGGSGGGGSDIQMTQSPSSLSASVGDRVTITCRASQGISSWLAWYQQKPEKAPKSLIYAASSLQSGVPSRFSGSGSGTDFTLTISSLQPEDFATYYCQQYNSYPPTFGQGTKVEIKGGGGSGGGGSGGGGSQVQLQQWGAGLLKPSETLSLTCAVYGGSFSDYYWNWIRQPPGKGLEWIGEINHRGSTNSNPSLKSRVTLSLDTSKNQFSLKLRSVTAADTAVYYCAFGYSDYEYNWFDPWGQGTLVTVSSGGGGSGGGGSGGGGSEIVLTQSPATLSLSPGERATLSCRASQSISSYLAWYQQKPGQAPRLLIYDASNRATGIPARFSGSGSGTDFTLTISSLEPEDFAVYYCQQRSNWPLTFGQGTNLEIKRESKYGPPCPPCPFWVLVVVGGVLACYSLLVTVAFIIFWVRSKRSRLLHSDYMNMTPRRPGPTRKHYQPYAPPRDFAAYRS
notes: as for B1

Key:
Test in all cases: flow cytometry, soluble tagged antigen staining T cells that carry the construct
[1] = biological target: T4, Human PD-1 / PDCD1 Protein, His Tag (ACRO) (human, UniProt Q15116 25-167)
T4 construct: Bought reagent (ACRO); no catalogue number, no construct limits; also called CD279; not shown: His tag
T4 sequence (Q15116 25-167 limits assumed): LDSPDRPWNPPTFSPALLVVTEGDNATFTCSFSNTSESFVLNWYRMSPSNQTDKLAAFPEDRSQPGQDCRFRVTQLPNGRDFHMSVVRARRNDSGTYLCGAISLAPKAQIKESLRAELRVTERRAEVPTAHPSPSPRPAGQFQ

[2] = biological target: T1, Human CTLA-4 / CD152 Protein, Fc Tag …
[3] = biological target: T2, Human TIGIT Protein, Fc Tag (ACRO)
[4] = biological target: T3, Human LAG-3 / CD223 Protein, His Tag …

Row | Binder | binding result [1] | binding result [2] | binding result [4] | further results
1 | B1 | binds |  |  | 
2 | B2 |  | binds |  | 
3 | B3 |  | binds |  | 
4 | B4 |  |  |  | binding result [3]: binds
5 | B5 |  |  | binds | 
6 | B6 | binds |  | binds | 
7 | B7 | binds | binds |  | 
8 | B8 |  | binds | binds | 

Source: patent publication EP4663762A2 (HongKong Bioheng Biotech Limited, dated 2025)
